In general, EC50 refers to the concentration that produces a half-maximal response. Higher therefore signals a need for much substance.

The results in this text go back to patent US20060003399A1, “High throughput actin polymerization assay” (Cytokinetics, Inc., priority 2004, published 2006).

Experiment in all cases: cell-based or functional assay
The target in one test is Arp2/3 complex (human) (UniProt P61158).
Test [1] addresses Actin (G-actin with pyrene-actin) (chicken).
Test [2] has as its target Full length human N-WASP, TAP-tagged at the C-terminus (Myc-N-WASP-TAP) (human).
Test [3] has as its target Full length human WASP, TAP-tagged at the C-terminus (Myc-WASP-TAP) (human).

As for “Full length human WASP, TAP-tagged at the C-terminus (Myc-WASP-TAP)”, in the test with Arp2/3 complex (human), the activity relative to 105 WASP (fold against 105 WASP) stood at 20; the concentration giving maximal concentration of barbed ends (500 nM Cdc42, 2.5 nM Arp2/3, 3.5 uM actin) came out at 3 nM; the potency relative to the VCA/WA domain (fold against VCA/WA domain) was above 70.

In test [1], “GST tagged C. albicans FH1-FH2 domain (from UniProt Q5AL52 972-1598)” registered a lag phase of actin polymerization at 100 nM formin below 100 s and a time to saturation phase of actin polymerization at 100 nM formin of 400 s.

In the case of GST-Nck2, in test [2], the Barbed ends was found to be 3.5 nM, the Barbed ends % of max. is 78% and the EC50 was 7 nM. In test [3], this substance showed a Barbed ends of 2.6 nM, a Barbed ends % of max. of 50% and a concentration giving a half-maximal response (EC50) of 12 nM.

For the substance GST-tev-Cdc42 (enzyme), the EC50 in test [2] was found to be 287 nM; in test [3], 16 nM.

In test [1], “His6 tagged C. albicans FH1-FH2 domain (from UniProt Q5AL52 972-1598)” showed a formin concentration to observe saturation of actin polymerization of 300 to 500 nM.
